Measurements reported in IntAct's records for PubMed 31515488.

B1: mRNA-decapping enzyme 1A (Homo sapiens), Q9NPI6 (parent)
chain: MEALSRAGQEMSLAALKQHDPYITSIADLTGQVALYTFCPKANQWEKTDIEGTLFVYRRSASPYHGFTIVNRLNMHNLVEPVNKDLEFQLHEPFLLYRNASLSIYSIWFYDKNDCHRIAKLMADVVEEETRRSQQAARDKQSPSQANGCSDHRPIDILEMLSRAKDEYERNQMGDSNISSPGLQPSTQLSNLGSTETLEEMPSGSQDKSAPSGHKHLTVEELFGTSLPKEQPAVVGLDSEEMERLPGDASQKEPNSFLPFPFEQLGGAPQSETLGVPSAAHHSVQPEITTPVLITPASITQSNEKHAPTYTIPLSPVLSPTLPAEAPTAQVPPSLPRNSTMMQAVKTTPRQRSPLLNQPVPELSHASLIANQSPFRAPLNVTNTAGTSLPSVDLLQKLRLTPQHDQIQTQPLGKGAMVASFSPAAGQLATPESFIEPPSKTAAARVAASASLSNMVLAPLQSMQQNQDPEVFVQPKVLSSAIPVAGAPLVTATTTAVSSVLLAPSVFQQTVTRSSDLERKASSPSPLTIGTPESQRKPSIILSKSQLQDTLIHLIKNDSSFLSTLHEVYLQVLTKNKDNHNL
B2: Endothelial transcription factor GATA-2 (Homo sapiens), P23769 (parent)
chain: MEVAPEQPRWMAHPAVLNAQHPDSHHPGLAHNYMEPAQLLPPDEVDVFFNHLDSQGNPYYANPAHARARVSYSPAHARLTGGQMCRPHLLHSPGLPWLDGGKAALSAAAAHHHNPWTVSPFSKTPLHPSAAGGPGGPLSVYPGAGGGSGGGSGSSVASLTPTAAHSGSHLFGFPPTPPKEVSPDPSTTGAASPASSSAGGSAARGEDKDGVKYQVSLTESMKMESGSPLRPGLATMGTQPATHHPIPTYPSYVPAAAHDYSSGLFHPGGFLGGPASSFTPKQRSKARSCSEGRECVNCGATATPLWRRDGTGHYLCNACGLYHKMNGQNRPLIKPKRRLSAARRAGTCCANCQTTTTTLWRRNANGDPVCNACGLYYKLHNVNRPLTMKKEGIQTRNRKMSNKSKKSKKGAECFEELSKCMQEKSSPFSAAALAGHMAPVGHLPPFSHSGHILPTPTPIHPSSSLSFGHPHPSSMVTAMG
partner: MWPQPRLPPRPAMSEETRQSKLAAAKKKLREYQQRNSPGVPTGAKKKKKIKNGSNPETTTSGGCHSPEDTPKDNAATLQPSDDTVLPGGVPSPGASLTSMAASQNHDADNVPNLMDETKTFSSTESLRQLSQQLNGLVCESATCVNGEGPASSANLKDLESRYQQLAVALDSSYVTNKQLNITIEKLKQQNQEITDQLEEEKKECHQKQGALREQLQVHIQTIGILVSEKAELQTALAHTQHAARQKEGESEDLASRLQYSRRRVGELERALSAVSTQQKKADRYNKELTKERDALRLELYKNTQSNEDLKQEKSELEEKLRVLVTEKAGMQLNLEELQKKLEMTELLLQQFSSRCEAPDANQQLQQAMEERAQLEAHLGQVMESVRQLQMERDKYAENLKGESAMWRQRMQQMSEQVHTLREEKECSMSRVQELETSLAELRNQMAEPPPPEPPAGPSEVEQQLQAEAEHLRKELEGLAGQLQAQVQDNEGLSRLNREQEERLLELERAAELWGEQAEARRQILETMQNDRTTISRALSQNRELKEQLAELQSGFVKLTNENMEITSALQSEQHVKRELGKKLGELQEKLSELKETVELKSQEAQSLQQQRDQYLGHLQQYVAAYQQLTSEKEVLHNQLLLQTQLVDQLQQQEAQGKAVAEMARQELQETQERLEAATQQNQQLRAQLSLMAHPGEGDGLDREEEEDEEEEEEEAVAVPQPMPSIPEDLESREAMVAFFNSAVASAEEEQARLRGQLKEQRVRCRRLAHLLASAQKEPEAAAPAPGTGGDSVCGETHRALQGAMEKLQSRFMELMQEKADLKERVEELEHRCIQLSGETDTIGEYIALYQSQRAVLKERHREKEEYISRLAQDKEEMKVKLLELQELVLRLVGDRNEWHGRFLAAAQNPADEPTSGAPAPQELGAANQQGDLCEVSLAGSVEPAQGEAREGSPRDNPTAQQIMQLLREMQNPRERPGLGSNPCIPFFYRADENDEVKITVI
B3: F-BAR domain only protein 1 (Homo sapiens), O14526 (parent)
chain: MSYFGEHFWGEKNHGFEVLYHSVKQGPISTKELADFIRERATIEETYSKAMAKLSKLASNGTPMGTFAPLWEVFRVSSDKLALCHLELTRKLQDLIKDVLRYGEEQLKTHKKCKEEVVSTLDAVQVLSGVSQLLPKSRENYLNRCMDQERLRRESTSQKEMDKAETKTKKAAESLRRSVEKYNSARADFEQKMLDSALRFQAMEETHLRHMKALLGSYAHSVEDTHVQIGQVHEEFKQNIENVSVEMLLRKFAESKGTGREKPGPLDFEAYSAAALQEAMKRLRGAKAFRLPGLSRREREPEPPAAVDFLEPDSGTCPEVDEEGFTVRPDVTQNSTAEPSRFSSSDSDFDDEEPRKFYVHIKPAPARAPACSPEAAAAQLRATAGSLILPPGPGGTMKRHSSRDAAGKPQRPRSAPRTSSCAERLQSEEQVSKNLFGPPLESAFDHEDFTGSSSLGFTSSPSPFSSSSPENVEDSGLDSPSHAAPGPSPDSWVPRPGTPQSPPSCRAPPPEARGIRAPPLPDSPQPLASSPGPWGLEALAGGDLMPAPADPTAREGLAAPPRRLRSRKVSCPLTRSNGDLSRSLSPSPLGSSAASTALERPSFLSQTGHGVSRGPSPVVLGSQDALPIATAFTEYVHAYFRGHSPSCLARVTGELTMTFPAGIVRVFSGTPPPPVLSFRLVHTTAIEHFQPNADLLFSDPSQSDPETKDFWLNMAALTEALQRQAEQNPTASYYNVVLLRYQFSRPGPQSVPLQLSAHWQCGATLTQVSVEYGYRPGATAVPTPLTNVQILLPVGEPVTNVRLQPAATWNLEEKRLTWRLPDVSEAGGSGRLSASWEPLSGPSTPSPVAAQFTSEGTTLSGVDLELVGSGYRMSLVKRRFATGMYLVSC
partner: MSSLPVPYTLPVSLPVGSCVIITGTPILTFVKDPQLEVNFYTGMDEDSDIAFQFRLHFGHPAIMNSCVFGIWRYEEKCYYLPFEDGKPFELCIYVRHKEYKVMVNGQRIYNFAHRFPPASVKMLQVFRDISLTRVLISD
B4: Four and a half LIM domains protein 2 (Homo sapiens), Q14192 (parent)
chain: MTERFDCHHCNESLFGKKYILREESPYCVVCFETLFANTCEECGKPIGCDCKDLSYKDRHWHEACFHCSQCRNSLVDKPFAAKEDQLLCTDCYSNEYSSKCQECKKTIMPGTRKMEYKGSSWHETCFICHRCQQPIGTKSFIPKDNQNFCVPCYEKQHAMQCVQCKKPITTGGVTYREQPWHKECFVCTACRKQLSGQRFTARDDFAYCLNCFCDLYAKKCAGCTNPISGLGGTKYISFEERQWHNDCFNCKKCSLSLVGRGFLTERDDILCPDCGKDI
partner: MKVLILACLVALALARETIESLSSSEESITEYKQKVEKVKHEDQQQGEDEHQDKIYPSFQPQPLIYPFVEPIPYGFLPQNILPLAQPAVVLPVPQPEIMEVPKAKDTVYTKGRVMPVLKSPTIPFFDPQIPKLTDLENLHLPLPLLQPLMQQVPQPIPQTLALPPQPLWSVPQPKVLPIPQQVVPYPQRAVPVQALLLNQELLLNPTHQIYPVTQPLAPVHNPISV

Variants of: B1
Details: with pnrc2_human PNRC2, Q9NPJ4
Chain of pnrc2_human PNRC2, Q9NPJ4 (Q9NPJ4 whole entry): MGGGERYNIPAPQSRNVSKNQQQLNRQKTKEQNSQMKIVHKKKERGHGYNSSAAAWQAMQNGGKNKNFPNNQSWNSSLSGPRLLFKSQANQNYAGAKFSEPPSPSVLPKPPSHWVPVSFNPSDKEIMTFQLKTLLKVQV

Variant | effect of a mutation on the interaction
MEALSRAGQEMSLAALKQHDPYITSIADLTGQVALYTFCPKANQWEKTDIEGTLFVYRRSASPYHGFTIVNRLNMHNLVEPVNKDLEFQLHEPFLLYRNASLSIYSIWFYDKNDCHRIAKLMADVVEEETRRSQQAARDKQSPSQANGCSDHRPIDILEMLSRAKDEYERNQMGDSNISSPGLQPSTQLSNLGSTETLEEMPSGSQDKSAPSGHKHLTVEELFGTSLPKEQPAVVGLDSEEMERLPGDASQKEPNSFLPFPFEQLGGAPQSETLGVPSAAHHSVQPEITTPVLITPGSITQSNEKHAPTYTIPLSPVLSPTLPAEAPTAQVPPSLPRNSTMMQAVKTTPRQRSPLLNQPVPELSHASLIANQSPFRAPLNVTNTAGTSLPSVDLLQKLRLTPQHDQIQTQPLGKGAMVASFSPAAGQLATPESFIEPPSKTAAARVAASASLSNMVLAPLQSMQQNQDPEVFVQPKVLSSAIPVAGAPLVTATTTAVSSVLLAPSVFQQTVTRSSDLERKASSPSPLTIGTPESQRKPSIILSKSQLQDTLIHLIKNDSSFLSTLHEVYLQVLTKNKDNHNL [A297G] | with no effect
MEALSRAGQEMSLAALKQHDPYITSIADLTGQVALYTFCPKANQWEKTDIEGTLFVYRRSASPYHGFTIVNRLNMHNLVEPVNKDLEFQLHEPFLLYRNASLSIYSIWFYDKNDCHRIAKLMADVVEEETRRSQQAARDKQSPSQANGCSDHRPIDILEMLSRAKDEYERNQMGDSNISSPGLQPSTQLSNLGSTETLEEMPSGSQDKSAPSGHKHLTVEELFGTSLPKEQPAVVGLDSEEMERLPGDASQKEPNSFLPFPFEQLGGAPQSETLGVPSAAHHSVQPEITTPVLITPASITQSNEKHAPTYTIPLSPVLSPTLPAEAPTAQVTPSLPRNSTMMQAVKTTPRQRSPLLNQPVPELSHASLIANQSPFRAPLNVTNTAGTSLPSVDLLQKLRLTPQHDQIQTQPLGKGAMVASFSPAAGQLATPESFIEPPSKTAAARVAASASLSNMVLAPLQSMQQNQDPEVFVQPKVLSSAIPVAGAPLVTATTTAVSSVLLAPSVFQQTVTRSSDLERKASSPSPLTIGTPESQRKPSIILSKSQLQDTLIHLIKNDSSFLSTLHEVYLQVLTKNKDNHNL [P332T] | with no effect
MEALSRAGQEMSLAALKQHDPYITSIADLTGQVALYTFCPKANQWEKTDIEGTLFVYRRSASPYHGFTIVNRLNMHNLVEPVNKDLEFQLHEPFLLYRNASLSIYSIWFYDKNDCHRIAKLMADVVEEETRRSQQAARDKQSPSQANGCSDHRPIDILEMLSRAKDEYERNQMGDSNISSPGLQPSTQLSNLGSTETLEEMPSGSQDKSAPSGHKHLTVEELFGTSLPKEQPAVVGLDSEEMERLPGDASQKEPNSFLPFPFEQLGGAPQSETLGVPSAAHHSVQPEITTPVLITPASITQSNEKHAPTYTIPLSPVLSPTLPAEAPTAQVPPSLPRNSTMMQAVKTTPRQRSPLLNQPVPELSHASLIANQSPFRAPLNVTNTAGTSLPSVDLLQKLRLTPQHDQIQTQPLGKGAMVASFSPAAGQLATPESFIEPPSKTAAARVAASASLSNMVLAPLQSMQQNQDPEVFVHPKVLSSAIPVAGAPLVTATTTAVSSVLLAPSVFQQTVTRSSDLERKASSPSPLTIGTPESQRKPSIILSKSQLQDTLIHLIKNDSSFLSTLHEVYLQVLTKNKDNHNL [Q474H] | with no effect

Variants of: B2
Details: with goga2_human GOLGA2, Q08379

Variant | effect of a mutation on the interaction
A164T | with no effect

Variants of: B3
Details: with ppl13_human LGALS14, Q8TCE9

Variant | effect of a mutation on the interaction
E423G | with no effect

Variants of: B4
Details: with casb_human CSN2, P05814

Variant | effect of a mutation on the interaction
MTERFDCHHCNESLFGKKYILREESPYCVVCFETLFSNTCEECGKPIGCDCKDLSYKDRHWHEACFHCSQCRNSLVDKPFAAKEDQLLCTDCYSNEYSSKCQECKKTIMPGTRKMEYKGSSWHETCFICHRCQQPIGTKSFIPKDNQNFCVPCYEKQHAMQCVQCKKPITTGGVTYREQPWHKECFVCTACRKQLSGQRFTARDDFAYCLNCFCDLYAKKCAGCTNPISGLGGTKYISFEERQWHNDCFNCKKCSLSLVGRGFLTERDDILCPDCGKDI [A37S] | with no effect
MTERFDCHHCNESLFGKKYILREESPYCVVCFETLFANTCEECGKPIGCDCKDLSYKDRHWHEACFHCSQCRNSLVDKPFAAKEDQLLCTDCYSKEYSSKCQECKKTIMPGTRKMEYKGSSWHETCFICHRCQQPIGTKSFIPKDNQNFCVPCYEKQHAMQCVQCKKPITTGGVTYREQPWHKECFVCTACRKQLSGQRFTARDDFAYCLNCFCDLYAKKCAGCTNPISGLGGTKYISFEERQWHNDCFNCKKCSLSLVGRGFLTERDDILCPDCGKDI [N95K] | with no effect
